# According to patent US20090081234A1 (published 2009):
# B1: TNV196 (antibody, V domains shown)
# VH: QVQLVESGGGVVQPGRSLRLSCAASGFTFSSYAMHWVRQAPGKGLEWVAFISYDGSNKKSADSVKGRFTVSRDNSKNTLFLQMNSLRAEDTAVFYCARDRGIGAGGNYYYYGMDVWGQGTTVTVSS
# VL: EIVLTQSPATLSLSPGERATLSCRASQSVYSYLAWYQQKPGQAPRLLIYDASNRATGIPARFSGSGSGTDFTLTISSLEPEDFAVYYCQQRSNWPPFTFGPGTKVDIK
# Biological target: recombinant human TNFα (human, UniProt P01375 77-233)
# Assay: cell-based or functional assay
# Chain of recombinant human TNFα (P01375 77-233 limits assumed): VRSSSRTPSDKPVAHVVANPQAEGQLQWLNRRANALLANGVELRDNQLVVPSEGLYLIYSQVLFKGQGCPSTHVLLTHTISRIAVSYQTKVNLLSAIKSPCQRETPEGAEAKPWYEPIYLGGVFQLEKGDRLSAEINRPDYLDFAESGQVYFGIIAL
binder,measurement,value
B1,neutralizing TNFα bioactivity,4 fold
